From PMC8444450 (The Journal of Biological Chemistry, 2021)

Biological target: SARS-CoV-2 spike receptor-binding domain (amino acids 333–529), bacteria-expressed and refolded (SARS-CoV-2, parental (WT) RBD, UniProt P0DTC2)
Test: SPR
Details: both partners purified

B1: sybody Sb68 (VHH)
VHH: QVQLVESGGGSVQAGGSLRLSCAASGSISSITYLGWFRQAPGKEREGVAALITVNGHTYYADSVKGRFTVSLDNAKNTVYLQMNSLKPEDTALYYCAAAAWGYAWPLHQDDYWYWGQGTQVTVSA
Work on B1 yielded a Kd of 6.8 to 62.7 nM.
